According to patent US20140322218A1 (Amgen, published 2014):
One block for each binder: values may come before it.

Tests used:
[1] = molecular target: T1, muCDH19(44-139)::huCDH19(142-364)::muCDH19(363-770), Flag-tagged, on 293T cells (human/mouse chimera); assay: FACS, transfected 293T
T1 construct: also called Hu EC2-3; C137847
From the text: (§1) The experiment included assaying the anti-CDH19 antibodies against mouse Cadherin19 to determine suitability for binning on these human/mouse chimeras.

[2] = molecular target: T2, muCDH19(44-247)::huCDH19(250-364)::muCDH19(363-770), Flag-tagged, on 293T cells (human/mouse chimera); assay: FACS, transfected 293T
T2 construct: also called Hu EC3; C137911
From the text: as §1

[3] = molecular target: T3, huCDH19(44-772), Flag-tagged, on 293T cells (human, UniProt Q9H159 44-772); assay: FACS, transfected 293T
T3 construct: Expressed with native leader (1-43) followed by a Flag tag; leader left out; also called Hu EC1-5
From the text: as §1

Cyno Cadherin-19 = molecular target: T4, Cyno Cadherin-19 (cynomolgus monkey (Macaca fascicularis), UniProt Q9H159 44-772 (human entry)); assay: FACS, recombinant cyno CDH19
T4 construct: also called cyno CDH19; cynomologous CDH-19
T4 chain: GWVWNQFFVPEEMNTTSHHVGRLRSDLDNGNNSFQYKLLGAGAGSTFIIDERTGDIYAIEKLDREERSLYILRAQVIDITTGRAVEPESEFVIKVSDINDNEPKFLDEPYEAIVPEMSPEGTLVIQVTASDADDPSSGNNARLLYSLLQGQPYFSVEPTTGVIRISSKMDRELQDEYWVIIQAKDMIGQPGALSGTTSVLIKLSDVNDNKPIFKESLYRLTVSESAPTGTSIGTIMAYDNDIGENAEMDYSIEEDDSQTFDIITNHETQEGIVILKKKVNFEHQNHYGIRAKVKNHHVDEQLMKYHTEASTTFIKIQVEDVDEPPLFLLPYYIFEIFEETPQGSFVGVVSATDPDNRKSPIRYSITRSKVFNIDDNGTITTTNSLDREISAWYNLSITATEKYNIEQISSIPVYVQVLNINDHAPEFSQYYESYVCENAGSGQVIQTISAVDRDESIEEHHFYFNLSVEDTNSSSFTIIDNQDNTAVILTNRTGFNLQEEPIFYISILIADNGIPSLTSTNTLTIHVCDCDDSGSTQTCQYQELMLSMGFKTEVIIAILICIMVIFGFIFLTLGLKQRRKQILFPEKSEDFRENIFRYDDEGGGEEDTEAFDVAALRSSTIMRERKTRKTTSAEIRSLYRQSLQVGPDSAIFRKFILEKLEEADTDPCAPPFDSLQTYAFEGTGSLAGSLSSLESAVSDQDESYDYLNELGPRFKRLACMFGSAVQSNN

[4] = molecular target: T5, huCDH19(44-249)::muCDH19(248-770), Flag-tagged, on 293T cells (human/mouse chimera); assay: FACS, transfected 293T
T5 construct: also called Hu EC1-2; C137896
From the text: as §1

[5] = molecular target: T6, huCDH19(44-141)::muCDH19(140-770), Flag-tagged, on 293T cells (human/mouse chimera); assay: FACS, transfected 293T
T6 construct: also called Hu EC1
From the text: as §1

Human Cadherin-19 = molecular target: T7, Human Cadherin-19 (human, UniProt Q9H159 44-772); assay: FACS, endogenous CDH19 on CHL-1/Colo699
T7 construct: Residues 1-43 are named as the native leader in the construct designations and are left out; also called human CDH19; huCDH19
Method: FACS binding assays were performed to evaluate the binding of the anti-Cadherin-19 receptor specific antibodies to endogenous Cadherin-19 receptor expressed on the CHL-1 tumor cell lines.
FACs assays were performed by incubating hybridoma supernatants with 10,000 to 25,000 cells in PBS/2% Fetal bovine serum/2 mM Calcium Chloride at 4° C. for one hour followed by two washes with PBS/2% Fetal bovine serum/2 mM Calcium Chloride. Cells were then treated with florochrome-labeled secondary antibodies at 4° C. followed by one wash. The cells were resuspended in 50 μl of PBS/2% FBS and antibody binding was analyzed using a FACSCalibur™ instrument.

[6] = molecular target: T8, (1-43)::FLAG::ckCDH19(44-468)::huCDH19(464-772), on 293T cells (human/chicken chimera); assay: FACS, transfected 293T;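 further: antibody binding to chimera-expressing cells with 2 mM CaCl2 present, cell-bound Alexa647-labelled antibody read by flow cytometry, mock-transfected cells serving as control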
T8 construct: Entry holds leader (1-43), Flag tag and CDH19 part; leader left out; also called Hu EC5 (chicken backbone)
T8 chain: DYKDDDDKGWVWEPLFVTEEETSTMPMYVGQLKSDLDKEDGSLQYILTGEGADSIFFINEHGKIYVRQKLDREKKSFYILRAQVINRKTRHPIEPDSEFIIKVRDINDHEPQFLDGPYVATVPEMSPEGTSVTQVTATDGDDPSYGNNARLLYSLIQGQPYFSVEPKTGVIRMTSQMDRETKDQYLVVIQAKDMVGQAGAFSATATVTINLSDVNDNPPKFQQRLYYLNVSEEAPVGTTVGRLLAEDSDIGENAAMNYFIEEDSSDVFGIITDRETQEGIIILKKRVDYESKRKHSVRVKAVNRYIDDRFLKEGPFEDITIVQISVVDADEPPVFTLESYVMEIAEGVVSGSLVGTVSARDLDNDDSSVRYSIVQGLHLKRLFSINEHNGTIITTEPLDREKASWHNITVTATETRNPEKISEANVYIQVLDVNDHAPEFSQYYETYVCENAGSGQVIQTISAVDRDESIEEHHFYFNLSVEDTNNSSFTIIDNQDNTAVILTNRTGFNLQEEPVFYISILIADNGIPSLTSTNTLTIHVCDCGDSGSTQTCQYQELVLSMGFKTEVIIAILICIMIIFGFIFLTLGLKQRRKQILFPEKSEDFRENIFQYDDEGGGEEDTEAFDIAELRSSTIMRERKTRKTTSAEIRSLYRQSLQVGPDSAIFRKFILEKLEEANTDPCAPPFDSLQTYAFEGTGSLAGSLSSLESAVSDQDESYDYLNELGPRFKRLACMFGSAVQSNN
Method: (§2) The following binding assay was completed in presence of 2 mM CaCl2. […] Cells were then washed one time and the amount of cell associated Alexa647-labelled Ab was quantitated by flow cytometry. The experiments included mock transfected controls.

[7] = molecular target: T9, ckCDH19(1-43)::FLAG::ckCDH19(44-776), on 293T cells (chicken); assay: FACS, transfected 293T;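 further: antibody binding to chimera-expressing cells with 2 mM CaCl2 present, cell-bound Alexa647-labelled antibody read by flow cytometry, mock-transfected cells serving as control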
T9 construct: Entry holds leader (1-43), Flag tag and CDH19 part; leader left out; also called Ck EC1-5
T9 chain: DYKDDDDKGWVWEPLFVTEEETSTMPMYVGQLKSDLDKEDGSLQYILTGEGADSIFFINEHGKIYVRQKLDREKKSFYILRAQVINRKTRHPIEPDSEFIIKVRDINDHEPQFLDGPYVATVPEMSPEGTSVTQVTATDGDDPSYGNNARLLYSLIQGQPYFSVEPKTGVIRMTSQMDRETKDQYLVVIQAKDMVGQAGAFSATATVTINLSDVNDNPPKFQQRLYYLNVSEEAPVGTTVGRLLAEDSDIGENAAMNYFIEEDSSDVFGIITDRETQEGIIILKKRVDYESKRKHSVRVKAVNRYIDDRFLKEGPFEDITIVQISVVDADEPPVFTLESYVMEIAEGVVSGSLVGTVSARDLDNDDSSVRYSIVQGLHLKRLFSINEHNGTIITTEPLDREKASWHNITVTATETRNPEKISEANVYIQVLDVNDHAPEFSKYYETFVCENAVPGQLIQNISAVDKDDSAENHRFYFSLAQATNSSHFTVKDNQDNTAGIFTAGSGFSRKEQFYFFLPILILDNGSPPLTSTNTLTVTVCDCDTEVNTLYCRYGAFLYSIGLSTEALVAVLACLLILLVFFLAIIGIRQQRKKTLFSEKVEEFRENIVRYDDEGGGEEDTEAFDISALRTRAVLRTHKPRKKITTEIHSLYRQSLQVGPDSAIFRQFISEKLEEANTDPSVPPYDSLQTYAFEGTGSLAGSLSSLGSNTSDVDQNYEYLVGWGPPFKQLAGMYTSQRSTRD
Method: as §2

[8] = molecular target: T10, huCDH19(1-43)::FLAG::hu(44-141)::ckCDH19(142-776), on 293T cells (human/chicken chimera); assay: FACS, transfected 293T;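 further: antibody binding to chimera-expressing cells with 2 mM CaCl2 present, cell-bound Alexa647-labelled antibody read by flow cytometry, mock-transfected cells serving as control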
T10 construct: Entry holds leader (1-43), Flag tag and CDH19 part; leader left out; also called Hu EC1 (chicken backbone)
Method: as §2

[9] = molecular target: T11, ckCDH19(1-43)::FLAG::ckCDH19(44-141)::huCDH19(142-249)::ckCDH19(250-776), on 293T cells (human/chicken chimera); assay: FACS, transfected 293T;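 further: antibody binding to chimera-expressing cells with 2 mM CaCl2 present, cell-bound Alexa647-labelled antibody read by flow cytometry, mock-transfected cells serving as control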
T11 construct: Entry holds leader (1-43), Flag tag and CDH19 part; leader left out; also called Hu EC2 (chicken backbone)
T11 chain: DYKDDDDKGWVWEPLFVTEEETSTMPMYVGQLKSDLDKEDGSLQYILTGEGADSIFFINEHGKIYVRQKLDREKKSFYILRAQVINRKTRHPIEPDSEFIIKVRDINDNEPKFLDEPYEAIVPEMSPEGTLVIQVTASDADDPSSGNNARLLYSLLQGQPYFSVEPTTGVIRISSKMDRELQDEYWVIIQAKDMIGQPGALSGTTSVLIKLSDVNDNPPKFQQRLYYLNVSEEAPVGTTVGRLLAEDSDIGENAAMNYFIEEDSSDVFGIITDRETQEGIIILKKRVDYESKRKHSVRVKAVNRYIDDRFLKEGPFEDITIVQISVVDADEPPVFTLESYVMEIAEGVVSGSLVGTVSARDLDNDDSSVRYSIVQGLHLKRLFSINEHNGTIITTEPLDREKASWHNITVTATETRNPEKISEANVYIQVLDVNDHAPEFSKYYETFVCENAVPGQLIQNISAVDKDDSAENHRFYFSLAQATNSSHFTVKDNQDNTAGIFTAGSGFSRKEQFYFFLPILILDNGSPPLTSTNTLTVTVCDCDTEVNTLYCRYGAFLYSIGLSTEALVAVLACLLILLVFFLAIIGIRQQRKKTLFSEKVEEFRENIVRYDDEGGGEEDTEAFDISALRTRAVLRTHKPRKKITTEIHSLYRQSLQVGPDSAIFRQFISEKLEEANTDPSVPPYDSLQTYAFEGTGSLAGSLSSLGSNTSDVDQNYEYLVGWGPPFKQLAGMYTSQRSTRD
Method: as §2

[10] = molecular target: T12, muCDH19(44-770), Flag-tagged, on 293T cells (mouse); assay: FACS, transfected 293T
T12 construct: also called Mu EC1-5
T12 chain: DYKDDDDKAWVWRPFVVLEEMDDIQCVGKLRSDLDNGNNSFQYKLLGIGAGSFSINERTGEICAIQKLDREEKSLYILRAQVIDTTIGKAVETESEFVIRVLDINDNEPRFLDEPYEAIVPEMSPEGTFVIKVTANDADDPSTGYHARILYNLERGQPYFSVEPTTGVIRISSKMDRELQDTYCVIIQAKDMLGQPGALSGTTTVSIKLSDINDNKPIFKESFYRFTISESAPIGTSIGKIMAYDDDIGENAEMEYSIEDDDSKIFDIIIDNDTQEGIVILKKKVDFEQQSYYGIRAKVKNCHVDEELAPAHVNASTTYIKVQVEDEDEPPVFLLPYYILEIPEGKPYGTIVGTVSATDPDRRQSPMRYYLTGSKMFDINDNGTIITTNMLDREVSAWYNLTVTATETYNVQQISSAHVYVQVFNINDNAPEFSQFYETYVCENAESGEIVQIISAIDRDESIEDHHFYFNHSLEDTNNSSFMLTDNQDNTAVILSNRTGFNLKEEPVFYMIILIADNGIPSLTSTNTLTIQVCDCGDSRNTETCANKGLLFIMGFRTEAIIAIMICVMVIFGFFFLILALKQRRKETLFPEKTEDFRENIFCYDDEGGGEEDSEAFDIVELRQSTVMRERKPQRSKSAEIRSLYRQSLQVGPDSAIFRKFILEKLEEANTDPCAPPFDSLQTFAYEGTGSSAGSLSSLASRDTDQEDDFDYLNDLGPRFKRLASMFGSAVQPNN

binding result (Cyno Cadherin-19): binds | binding result [4]: binds | binding result [3]: binds | binding result [5]: binds | binding result (Human Cadherin-19): binds
B2: hu anti-<huCDH19> 25F8.1 VH::huIgG1z / 25F8.1 VL::huLLC-C2 (Ab ID 13880) (antibody, V domains shown)
VH: QVQLVQSGAEVKKPGASVKVSCKASGYTFTSYYIHWVRQAPGQGLEWMGIINPSGGSTRYAQKFQGRVTMTRDTSTSTVFMELSSLRSEDTAVYYCARGGIQLWLHFDYWGQGTLVTVSS
VL: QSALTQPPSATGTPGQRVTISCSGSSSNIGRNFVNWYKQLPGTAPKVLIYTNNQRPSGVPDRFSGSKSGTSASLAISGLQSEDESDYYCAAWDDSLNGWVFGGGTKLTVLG

binding result [1]: binds | binding result [2]: binds | binding result [3]: binds
B4: hu anti-<huCDH19> 4A2 (1-472)(Q17E,H47P) VH::huIgG1z / 4A2 (1-236)(N30Q,T102A) VL::huKLC (Ab ID 14026) (antibody, V domains shown)
VH: QVQLQESGPGLVKPSETLSLTCTVSGGSISSSGYYWSWIRQPPGKGLEWIGYIYYTGSAYYNPSLKSRVTISVDTSKNQFSLKLSSVTAADTAVYYCARDGSSGWYFQYWGQGTLVTVSS
VL: EIVLTQSPGTLSLSPGERATLSCRASRQISSSYLAWYQQKPGQAPRLLIYGPSSRATGIPDRFSGSGSGTDFTLTISRLEPEDFAVYYCQQYGSSFTFGPGTKVDIKR
notes: Engineered variant of 4A2

The next lines start with the binder.

B1: hu anti-<huCDH19> 4B10 (1-471)(R17G) VH::huIgG1z / 4B10 (1-236)(H45Q,A90T) VL::huKLC (Ab ID 14054) (antibody, V domains shown)
VH: QVQLVESGGGVVQPGGSLRLSCAASGFTFSSYDMHWVRQAPGKGLEWVAVISYDGTNEYYADSVKGRFTISRDTSKNTLYLQMNSLRAEDTAVYYCARERYFDWSFDYWGQGTLVSVSS
VL: EIVLTQSPGTLSLSPGERATLSCRASQSVSNTYLAWYQQRPGQAPRLLIYGASSRATGIPDRFSGSGSGTDFTLTISSLEPEDFAVYYCQQYSNSWTFGQGTKVEIKR
notes: Engineered variant of 4B10
binding result [1]: binds | binding result [2]: binds | binding result [3]: binds

B3: hu anti-<huCDH19> 26F12.1 VH::huIgG1z / 26F12.1 VL::huLLC-C2 (Ab ID 13881) (antibody, V domains shown)
VH: QVQLVQSGAEVKKPGASVKVSCKASRYTFTNYYMSWVRQAPGQGLEWMGIINPSGGDSTYAQKFQGRLTMTGDTSTSTVYMELSSLRSEDTAVYYCARGGIQLWLHFDYWGQGTLVTVSS
VL: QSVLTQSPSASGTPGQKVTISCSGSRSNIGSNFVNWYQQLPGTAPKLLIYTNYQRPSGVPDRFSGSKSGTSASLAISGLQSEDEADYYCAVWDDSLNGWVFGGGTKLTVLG
notes: also called 27B3
binding result [6]: no binding (tested: 5 ug/ml) | binding result [7]: no binding (tested: 5 ug/ml) | binding result [8]: binds | binding result [9]: no binding (tested: 5 ug/ml) | binding result [10]: no binding (tested: 5 ug/ml)
